Values quoted from earlier work in publication PMC6406280.

Tests used:
thrombin [1] = biological target: T1, thrombin (UniProt P00734+P00734); assay: thrombin inhibition (apparent Ki); conditions: no binding assay done in this paper (SEC, CD/UV melting, analysis of published structures); conditions of the cited assays not in the material
thrombin [2] = biological target: T1, thrombin; assay: not stated (cited); conditions: no binding assay done in this paper (SEC, CD/UV melting, analysis of published structures), conditions of the cited assays not in the material
thrombin [3] = biological target: T1, thrombin; assay: not stated (cited; equals the aKi); conditions: no binding assay done in this paper (SEC, CD/UV melting, analysis of published structures); conditions of the cited assays not in the material

Row | Substance | Ki (thrombin [1]) [nM] | further results
1 | CACTGGTAGGTTGGGTAGGGTGGGGCCAGTG [jja] | 1.2 | –
2 | CACTGGTAGGTTGGGTAGGGTGGTCCAGTG [jaa] | 1.34 | –
3 | CACTGGTAGGTTGGTGTGGTTGGGGCCAGTG [31-TBA (jjj)] | 0.34 | –
4 | CACTGGTAGGTTGGTGTGGTTGGTCCAGTG [jaj] | 14.2 | –
5 | CGCCTAGGTTGGGTAGGGTGGGGGGCG [aja] | 13.2 | –
6 | CGCCTAGGTTGGGTAGGGTGGTGGCG [NU172 (aaa)] | 0.29 | Kd (thrombin [2]): 35 nM; Kd (thrombin [3]): 0.29 nM
7 | CGCCTAGGTTGGTGTGGTTGGGGGGCG [ajj] | 48.6 | –
8 | CGCCTAGGTTGGTGTGGTTGGTGGCG [aaj] | 13.4 | –
9 | RE31 | – | Kd (thrombin [2]): 0.56 nM
10 | mTBA | – | Kd (thrombin [2]; modified TBA, not described): 25 nM
